Target: cynomolgus CD40 overexpressed on CHO cells (cynomolgus) [GFP: P42212]
Assay: flow cytometry on CHO cells expressing cynomolgus CD40

CP870893-IgG2 (antibody) gave an EC50 of 7.28 nM.
